Values belong to the binder of their own block, whether it stands above or below them.
Tests used:
Assay in all cases: SPR
[1] = molecular target: Neurexin-1β (+S4) (Mus musculus, UniProt P0DI97)
[2] = molecular target: human LRRTM2 LRR domain, F357Y mutant (human, UniProt O43300 34-371, F357Y)
[3] = molecular target: human LRRTM2 LRR domain, D352A mutant (human, UniProt O43300 34-371, D352A)

Sequence of Neurexin-1β (+S4) (P0DI97 47-392): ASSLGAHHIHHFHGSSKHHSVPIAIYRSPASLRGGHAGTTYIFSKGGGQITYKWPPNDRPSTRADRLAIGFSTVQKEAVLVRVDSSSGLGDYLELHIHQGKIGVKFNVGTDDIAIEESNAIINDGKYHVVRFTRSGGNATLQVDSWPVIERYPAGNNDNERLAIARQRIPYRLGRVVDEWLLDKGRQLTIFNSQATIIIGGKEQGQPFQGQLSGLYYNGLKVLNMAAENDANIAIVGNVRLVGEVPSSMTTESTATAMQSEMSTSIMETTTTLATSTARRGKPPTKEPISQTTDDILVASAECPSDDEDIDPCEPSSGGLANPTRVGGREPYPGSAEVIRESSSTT

Kd [1]: > 80 µM
B1: LRRTM2 (protein)
chain: CPPKCRCEKLLFYCDSQGFHSVPNATDKGSLGLSLRHNHITALERDQFASFSQLTWLHLDHNQISTVKEDAFQGLYKLKELILSSNKIFYLPNTTFTQLINLQNLDLSFNQLSSLHPELFYGLRKLQTLHLRSNSLRTIPVRLFWDCRSLEFLDLSTNRLRSLARNGFAGLIKLRELHLEHNQLTKINFAHFLRLSSLHTLFLQWNKISNLTCGMDWTWSTLEKLDLTGNEIKAIDLTVFETMPNLKILLMDNNKLNSLDSKILNSLKSLTTVGLSGNLWECSPRVCALASWLGSFQGRWEHSILCHSPDHTQGEDILDAVHGFQLCWNLSTTVTAMATTYRDPTTEYTKISSSSYHVGDKEIPTTAGIAVTTEEHFPEPDNAIFTQRVITGTMALLFSFFFIIFIVFISRKCCPPTLRRIRQCSMIQNHRQLRSQTRLHMSNMSDQGPYNEYEPTHEGPFIIINGYGQCKCQQLPYKECEV

Kd [2]: 19.3 µM
Kd [3]: > 34 µM
B2: human Nrxn1β LNS domain (–S4), wild type (domain or fragment)
chain: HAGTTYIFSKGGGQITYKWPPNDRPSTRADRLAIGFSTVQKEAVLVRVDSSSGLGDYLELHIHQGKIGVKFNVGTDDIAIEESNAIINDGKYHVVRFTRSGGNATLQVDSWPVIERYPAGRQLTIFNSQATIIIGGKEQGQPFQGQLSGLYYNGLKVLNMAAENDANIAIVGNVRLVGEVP
